Target: Recombinant human endostatin (human) (UniProt P39060)
Experiment: SPR

Chain of UniProt P39060 (P39060 1572-1754): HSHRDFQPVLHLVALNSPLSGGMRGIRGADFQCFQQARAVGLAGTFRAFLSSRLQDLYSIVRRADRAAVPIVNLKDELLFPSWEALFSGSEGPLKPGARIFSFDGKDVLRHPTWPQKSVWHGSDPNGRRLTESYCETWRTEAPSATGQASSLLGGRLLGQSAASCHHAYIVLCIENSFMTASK

## α3β1 integrin (Millipore) (from UniProt P26006 33-1051; P05556 21-728) (complex)
  Kd: 9 nM

Reference: PMC3432753
